Numbering of substitutions follows the chain as printed.
T1: C10orf54 (antigen of the KD values in Table 42) (human, UniProt Q9H7M9 33-311, limits assumed)
T1 sequence: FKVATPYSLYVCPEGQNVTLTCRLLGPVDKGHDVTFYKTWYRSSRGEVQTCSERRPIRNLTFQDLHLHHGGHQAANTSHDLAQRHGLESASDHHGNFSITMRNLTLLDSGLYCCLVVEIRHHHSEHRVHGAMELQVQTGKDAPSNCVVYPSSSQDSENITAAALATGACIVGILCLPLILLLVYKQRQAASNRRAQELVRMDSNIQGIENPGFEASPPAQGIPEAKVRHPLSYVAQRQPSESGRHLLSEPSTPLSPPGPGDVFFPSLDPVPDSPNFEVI

T2: full length cynomolgus monkey C10orf54 (construct CC4) (cynomolgus monkey, UniProt Q9H7M9 33-311 (human entry))
T2 construct: also called C10orf54 Construct 4
T2 chain: T1 sequence with P6L, L24V, L25F, N145S, V148A, D155E, I205T, P217S, P223L, S251G

T3: chimeric C10orf54: human IgV with mouse STALK (construct CC5) (human/mouse chimera)
T3 construct: also called C10orf54 Construct 5; hsIGVmmSTALK
T3 chain: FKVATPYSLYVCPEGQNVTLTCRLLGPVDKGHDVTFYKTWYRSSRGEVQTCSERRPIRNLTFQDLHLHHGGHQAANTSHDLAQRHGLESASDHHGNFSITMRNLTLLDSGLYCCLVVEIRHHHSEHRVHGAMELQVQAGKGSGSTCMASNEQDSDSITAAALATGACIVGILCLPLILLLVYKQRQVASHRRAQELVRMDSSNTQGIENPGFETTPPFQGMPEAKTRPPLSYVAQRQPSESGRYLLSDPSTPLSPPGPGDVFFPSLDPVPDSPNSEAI

T4: chimeric C10orf54: first half of IgV mouse and remainder (including loop) human (construct CC8) (human/mouse chimera, UniProt Q9H7M9 33-311)
T4 construct: also called C10orf54 Construct 8; mmabChsC10
T4 chain: T1 sequence with A4T, V18A, L24I, D29S, F36I, R42L, T50M

T5: chimeric C10orf54: human with mouse loop (construct CC9) (human/mouse chimera, UniProt Q9H7M9 33-311)
T5 construct: also called C10orf54 Construct 9; hsC10mmLOOP
T5 chain: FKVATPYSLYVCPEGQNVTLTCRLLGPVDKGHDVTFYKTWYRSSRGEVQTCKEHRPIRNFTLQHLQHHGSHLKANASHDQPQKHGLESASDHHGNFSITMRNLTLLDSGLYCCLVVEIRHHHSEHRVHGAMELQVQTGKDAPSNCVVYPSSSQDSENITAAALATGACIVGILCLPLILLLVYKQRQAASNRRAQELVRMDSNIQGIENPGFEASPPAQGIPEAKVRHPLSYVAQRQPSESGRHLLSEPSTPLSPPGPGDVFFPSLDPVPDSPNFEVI

T6: chimeric C10orf54: mouse with human loop (construct CC10) (human/mouse chimera, UniProt Q9D659 33-308 (mouse entry))
T6 construct: also called C10orf54 Construct 10; mmC10hsLOOP
T6 chain: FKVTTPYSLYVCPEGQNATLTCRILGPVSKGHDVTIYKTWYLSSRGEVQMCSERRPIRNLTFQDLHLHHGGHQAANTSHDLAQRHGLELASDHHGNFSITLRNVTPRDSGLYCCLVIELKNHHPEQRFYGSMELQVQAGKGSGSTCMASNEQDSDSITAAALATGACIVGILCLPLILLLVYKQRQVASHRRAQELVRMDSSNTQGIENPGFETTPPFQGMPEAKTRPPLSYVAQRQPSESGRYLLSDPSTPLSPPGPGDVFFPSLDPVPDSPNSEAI

T7: chimeric C10orf54: first half of IgV human and remainder (including loop) mouse (construct CC7) (human/mouse chimera, UniProt Q9D659 33-308 (mouse entry))
T7 construct: also called C10orf54 Construct 7; hsABCmmC10
T7 chain: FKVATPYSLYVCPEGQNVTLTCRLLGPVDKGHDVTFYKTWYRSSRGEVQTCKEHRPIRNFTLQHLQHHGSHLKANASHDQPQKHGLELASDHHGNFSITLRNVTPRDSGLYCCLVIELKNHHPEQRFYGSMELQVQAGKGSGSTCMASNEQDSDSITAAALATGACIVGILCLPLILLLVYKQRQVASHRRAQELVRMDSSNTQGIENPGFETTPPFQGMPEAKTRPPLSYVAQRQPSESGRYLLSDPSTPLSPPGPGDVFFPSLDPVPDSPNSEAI

B1: murine monoclonal antibody 141A (antibody, V domains shown)
VH: QVQLQQSGAELMKPGASVKISCKATGYTFSRYWIEWVKQRPGHGLEWIGEILPGSGSTNYNEKFKGKATFTADTSSNTAYMQLSSLTSEDSAVYYCAGEEVYDGYPWFGYWGQGTLVTVSA
VL: QIVLSQSPAILSASPGEKVTMTCRASSSLSYMHWYQQKPGSSPKPWIYATSNLASGVPARFSGSGSGTSYSLTISRVEAEDAATYYCQQWSSNPYTFGGGTKLEIK
notes: Mouse hybridoma antibody
B2: murine monoclonal antibody 353A (antibody, V domains shown)
VH: EVKLLESGGGLVQPGGSLKLSCAASGFDFSRYWMNWVRQAPGKGLEWIGEINPDSSTINYTPSLKDKFIISRDNAKNTLYLQMSKVRYEDTALYYCARPGEIYYYGSYWFAYWGQGTLVTVSA
VL: DIVLTQSPASLAVSLGQRATISCRASESVEYYGTSLMQWFQQKPGQPPKLLIYAASNVESRVPARFSGSGSGTDFSLNIHPVEEDDIAMYFCQQSRKDPWTFGGGTKLEIK
notes: Mouse hybridoma antibody
B3: murine monoclonal antibody 175A (antibody, V domains shown)
VH: QVQLQQSGAELMKPGASVKISCKATGYTFSTHWIEWVKQRPGHGLEWIGEILPGSGSTSYNEKFKGKATFTADTSSNTAYMQLSSLTSEDSAVYYCARWLLYYYAMDYWGQGTSVTVSS
VL: DVLMTQTPLSLPVSLGDQASISCRSSQSIVHSNGNTYLEWYLQKPGQSPKLLIYKLSNRFSGVPDRFSGSGSGTDFTLKISRVEAEDLGVYYCFQGSHFPYTFGGGTKLEIK
notes: Mouse hybridoma antibody
B4: murine monoclonal antibody 321D (antibody, V domains shown)
VH: B3 VH with S17A, T31S, S59D
VL: B3 VL with L56V, S81T, F99V, Y101F
notes: Mouse hybridoma antibody
B5: murine monoclonal antibody 305A (antibody, V domains shown)
VH: DVQLQESGPGLVKPSQSLSLTCSVTGYSITSGYYWNWIRQFPGNKLEWMGYISYDGSNNYNPSLKNRISITRDTSKNQFFLKLNSVTTEDTATYYCARRHDYLSFAYWGQGTLVIVSA
VL: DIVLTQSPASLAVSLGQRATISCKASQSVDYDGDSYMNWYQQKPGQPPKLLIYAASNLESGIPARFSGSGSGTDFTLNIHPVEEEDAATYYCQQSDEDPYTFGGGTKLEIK
notes: Mouse hybridoma antibody

Tests used:
[1] = molecular target: T1, C10orf54 (antigen of the KD values in …); test: method and antigen form not stated
[2] = molecular target: T2, full length cynomolgus monkey C10orf54 …; test: flow cytometry, transfected 293t cells, 2 ug/ml; stain = MFI >=20-fold over isotype control
Description: (§1) To investigate epitope diversity of the anti-human C10orf54 antibodies, 293t cells were transfected with 1 of 10 different C10orf54 expression constructs that co-express a fluorescent marker. Two days after transfection, cells were stripped from the tissue culture plate, stained with 2 μg/ml anti-human C10orf54 antibody , washed, stained with anti-mouse IgG-Fc Alexa Fluor 647 polyclonal antibody, washed, and stained with the viability dye 4′,6-Diamidino-2-Phenylindole, Dihydrochloride. Upon acquisition of 10,000 live events on a flow cytometer, live cells marked with the fluorescent marker were analyzed for the degree of staining by the anti-human C10orf54 antibody. When the median fluorescence intensity fold-change relative to an isotype control antibody was at least 20-fold, the antibody was considered to stain the C10orf54 expression construct in question.

[3] = molecular target: T3, chimeric C10orf54: human IgV with mouse …; test: as above
Description: as §1

[4] = molecular target: T4, chimeric C10orf54: first half of IgV …; test: as above
Description: as §1

[5] = molecular target: T5, chimeric C10orf54: human with mouse …; test: as above
Description: as §1

[6] = molecular target: T1, C10orf54 (antigen of the KD values in …); test: method and antigen form not stated; footnote: low affinity antibody
[7] = molecular target: T6, chimeric C10orf54: mouse with human …; test: flow cytometry, transfected 293t cells, 2 ug/ml; stain = MFI >=20-fold over isotype control
Description: as §1

[8] = molecular target: T7, chimeric C10orf54: first half of IgV …; test: as above
Description: as §1

Binder	Kd [1] [nM]	binding result [2]	binding result [3]	binding result [4]	binding result [5]	Kd [6] [nM]	binding result [7]	binding result [8]
B1	1.27	binds	binds	binds	binds	–	–	–
B2	2.9	binds	binds	binds	binds	–	–	–
B3	–	binds	binds	–	–	108	–	–
B4	7.26	binds	binds	binds	–	–	binds	–
B5	–	binds	binds	–	binds	20.8	–	binds
